The assay concerns the target Prokaryotic ubiquitin-like protein Pup from Corynebacterium glutamicum with C-terminal glutamate (Corynebacterium glutamicum) (UniProt Q8NQE0). The assay is described as follows: ITC; 25 °C, MicroCal iTC200; 150 µM CgluDop or 200 µM CgluDopGS injected into 15 or 20 µM CgluPupE in the cell; 50 mM Tris-HCl pH 8.0, 300 mM NaCl, 20 mM MgCl2; 1:1 binding model.

Chain of Prokaryotic ubiquitin-like protein Pup from Corynebacterium glutamicum with C-terminal glutamate (Corynebacterium glutamicum) (Q8NQE0 whole entry): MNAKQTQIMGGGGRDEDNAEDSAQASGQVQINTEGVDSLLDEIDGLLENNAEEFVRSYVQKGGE

Substance “CgluDopGS, Dop-loop variant of Dop from Corynebacterium glutamicum (Dop-loop H43-I77 replaced with (GS)4) (enzyme)” showed a fold tighter affinity than the wild type enzyme of 2.5 fold.

The record behind these values is article PMC8599861, “Structures of prokaryotic ubiquitin-like protein Pup in complex with depupylase Dop reveal the mechanism of catalytic phosphate formation” (Nature Communications, 2021).
